Starred links: 1 amine or outer side, 2 acyl side, 3 side chain; linkers in the order of their positions; H or OH if unused. Positions of bridges follow the written chain, without caps; N, C: chain ends. Non-standard residues stand in square brackets, D forms with d. Primed or numbered codes have the meaning given here. No end group written: not given here. *: point of attachment. PyrS2″ = (S)-3-amino-1-((pent-4-en-1-yloxy)carbonyl)pyrrolidine-3-carboxylic acid (stapling residue), C=CCCCOC(=O)N1CC[C@@](N[*:1])(C(=O)[*:2])C1; B5(16) = 2-amino-2-(pent-4-en-1-yl)hept-6-enoic acid = 2,2-bis(4-pentenyl)glycine (stitching residue), C=CCCCC(CCCC=C)(N[*:1])C(=O)[*:2]; B5(4) = 2,2-bis(4-pentenyl)glycine = 2-amino-2-(pent-4-en-1-yl)hept-6-enoic acid (stitching residue), C=CCCCC(CCCC=C)(N[*:1])C(=O)[*:2]; TfeGA = (S)-2-amino-3-((carboxymethyl)(2,2,2-trifluoroethyl)amino)propanoic acid, O=C([C@H](CN(CC(=O)[*:3])CC(F)(F)F)N[*:1])[*:2]; PyrS2 = (S)-3-amino-1-((pent-4-en-1-yloxy)carbonyl)pyrrolidine-3-carboxylic acid, C=CCCCOC(=O)N1CC[C@@](N[*:1])(C(=O)[*:2])C1; B5(3) = 2,2-bis(4-pentenyl)glycine (stitching residue), C=CCCCC(CCCC=C)(N[*:1])C(=O)[*:2]; Phe(3-CF3) = N[C@@H](Cc1cccc(C(F)(F)F)c1)C(=O)O; Phe(4-CF3) = N[C@@H](Cc1ccc(C(F)(F)F)cc1)C(=O)O; Phe(2-CF3) = N[C@@H](Cc1ccccc1C(F)(F)F)C(=O)O; Phe(2-Cl) = N[C@@H](Cc1ccccc1Cl)C(=O)O; Ala(cPent) = N[C@@H](CC1CCCC1)C(=O)O; Bta = N[C@@H](Cc1csc2ccccc12)C(=O)O; αAllylPro = C=CC[C@@]1(C(=O)O)CCCN1; tBuAla = CC(C)(C)C[C@H](N)C(=O)O; 3Thi = N[C@@H](Cc1ccsc1)C(=O)O; Cha = N[C@@H](CC1CCCCC1)C(=O)O; S8 = C=CCCCCCC[C@](C)(N)C(=O)O; Thr(ol) = C[C@@H](O)[C@H](N)CO; Phe(ol) = N[C@H](CO)Cc1ccccc1; NH(CH2)6NH2 = NCCCCCCN*
T1: B-cat-Halo (UniProt P35222 1-781)
T1 sequence (looked up): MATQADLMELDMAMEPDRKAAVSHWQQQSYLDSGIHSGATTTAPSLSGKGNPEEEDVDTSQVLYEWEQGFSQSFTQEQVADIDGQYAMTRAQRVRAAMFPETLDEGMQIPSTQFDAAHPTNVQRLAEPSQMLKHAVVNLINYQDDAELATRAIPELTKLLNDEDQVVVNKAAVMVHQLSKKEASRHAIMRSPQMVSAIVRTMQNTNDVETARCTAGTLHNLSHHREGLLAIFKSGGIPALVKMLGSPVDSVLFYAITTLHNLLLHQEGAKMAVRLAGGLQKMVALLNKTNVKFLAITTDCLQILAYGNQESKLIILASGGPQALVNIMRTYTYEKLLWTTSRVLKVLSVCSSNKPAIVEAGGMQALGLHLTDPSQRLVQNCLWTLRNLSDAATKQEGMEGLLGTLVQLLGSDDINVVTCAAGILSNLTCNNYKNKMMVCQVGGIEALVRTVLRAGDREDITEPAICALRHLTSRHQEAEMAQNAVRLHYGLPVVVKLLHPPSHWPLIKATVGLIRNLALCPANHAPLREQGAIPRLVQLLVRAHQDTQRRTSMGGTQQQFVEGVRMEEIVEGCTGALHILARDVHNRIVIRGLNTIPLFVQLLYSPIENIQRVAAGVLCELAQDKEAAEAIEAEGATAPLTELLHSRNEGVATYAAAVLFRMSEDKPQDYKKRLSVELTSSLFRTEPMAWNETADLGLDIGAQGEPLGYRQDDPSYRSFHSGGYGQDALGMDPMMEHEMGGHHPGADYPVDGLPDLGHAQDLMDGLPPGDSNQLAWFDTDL

T2: B-cat-Halo (beta-catenin HaloTag NanoBRET construct expressed in HEK293 cells) (UniProt P35222 2-781)
T2 sequence (looked up): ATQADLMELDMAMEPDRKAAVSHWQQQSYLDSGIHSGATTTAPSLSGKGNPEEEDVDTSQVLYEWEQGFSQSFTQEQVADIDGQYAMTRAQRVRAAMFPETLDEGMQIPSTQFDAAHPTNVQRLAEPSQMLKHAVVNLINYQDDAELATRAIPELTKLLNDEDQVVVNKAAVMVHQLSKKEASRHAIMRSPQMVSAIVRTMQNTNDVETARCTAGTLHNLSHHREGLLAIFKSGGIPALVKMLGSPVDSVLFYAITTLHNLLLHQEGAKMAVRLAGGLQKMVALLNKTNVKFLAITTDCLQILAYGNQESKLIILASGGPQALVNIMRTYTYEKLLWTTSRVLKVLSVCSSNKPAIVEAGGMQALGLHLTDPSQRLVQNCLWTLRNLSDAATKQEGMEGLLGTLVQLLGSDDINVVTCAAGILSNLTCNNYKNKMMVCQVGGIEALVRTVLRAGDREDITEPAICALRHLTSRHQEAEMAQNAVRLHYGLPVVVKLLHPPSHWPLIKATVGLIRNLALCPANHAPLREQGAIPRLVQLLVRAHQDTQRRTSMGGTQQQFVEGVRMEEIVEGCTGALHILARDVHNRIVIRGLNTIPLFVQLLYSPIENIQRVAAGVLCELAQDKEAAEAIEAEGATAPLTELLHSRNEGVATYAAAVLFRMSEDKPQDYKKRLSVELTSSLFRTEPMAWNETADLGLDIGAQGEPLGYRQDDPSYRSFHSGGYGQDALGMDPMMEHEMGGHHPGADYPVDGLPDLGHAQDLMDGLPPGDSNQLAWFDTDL

T3: Bcat-Halo (beta-catenin HaloTag fusion expressed in HEK293 cells) (UniProt P35222 1-781)
T3 sequence (looked up): T1 sequence (looked up)

B1: I-1356 (peptide)
peptide: [αAllylPro]D[tBuAla][B5(4)]DDAAFS[PyrS2″]F[Bta]S-NH2
modifications: staple 1-4, 4-11; not fully specified; printed as PL3-Asp-Npg-B5-Asp-Asp-Ala-Ala-Phe-Ser-PyrS2-Phe-BztA-Ser-NH2

Molecular target: T1, B-cat-Halo
Test: cell-based or functional assay

Binder | NanoBRET Abs IC50 [µM]
Ac-[αAllylPro]D[Cha][B5(16)]DDAAFS[PyrS2″][Phe(2-Cl)][Bta]Q-NH2 (staple 1-4, 4-11) [I-1044] | 17.6
Ac-[αAllylPro]D[Cha][B5(4)]DDAAFS[PyrS2][Phe(2-Cl)][Bta]S-NH2 (staple 1-4, 4-11) [I-1050] | 24.8
Ac-[αAllylPro]D[Cha][B5(16)]DDAAFT[PyrS2″][Phe(2-Cl)][Bta]Q-NH2 (staple 1-4, 4-11) [I-1042] | 11.4
Ac-[αAllylPro]D[Cha][B5(4)]DDAAFT[PyrS2″][Phe(2-Cl)][Bta]S-NH2 (staple 1-4, 4-11) [I-1048] | 8.8
Ac-[αAllylPro]D[tBuAla][B5(4)]D[TfeGA]AAFT[PyrS2][Phe(2-Cl)][Bta]Q-{NH(CH2)6NH2} (staple 1-4, 4-11) [I-1061] | 10.3
Ac-[αAllylPro]D[Cha][B5(16)]DDAAFN[PyrS2″][Phe(2-Cl)][Bta]S-NH2 (staple 1-4, 4-11) [I-1046] | 20.5
Ac-[αAllylPro]D[tBuAla][B5(4)]DDAAFL[PyrS2″][Phe(2-Cl)][Bta]Q-NH2 (staple 1-4, 4-11) [I-1062] | 4.7

Molecular target: T2, B-cat-Halo (beta-catenin HaloTag …)
Test: cell-based or functional assay

Binder | NanoBRET Abs IC50 [µM]
Ac-[αAllylPro]D[tBuAla][B5(3)]DDAAFT[S8][Phe(2-Cl)][Bta]Q-NH2 (staple 1-4, 4-11; also: later eluting staple isomer) [I-1087] | 9.3
Ac-[αAllylPro]D[tBuAla][B5(3)]DDAAFN[PyrS2″][Phe(2-Cl)][Bta][Thr(ol)] (staple 1-4, 4-11) [I-1082] | 14.1
Ac-[αAllylPro]D[tBuAla][B5(3)]DEAAFT[S8][Phe(2-Cl)][Bta]Q-NH2 (staple 1-4, 4-11; also: earlier eluting staple isomer) [I-1088] | 6.3
Ac-[αAllylPro]D[tBuAla][B5(3)]DDAAFN[PyrS2″][Phe(2-Cl)][Bta][Phe(ol)] (staple 1-4, 4-11) [I-1083] | 18.8
Ac-[αAllylPro]D[tBuAla][B5(3)]DEAAFT[S8][Phe(2-Cl)][Bta]Q-NH2 (staple 1-4, 4-11; also: later eluting staple isomer) [I-1089] | 8.9
Ac-[αAllylPro]D[tBuAla][B5(3)]DEAAFT[S8][Phe(2-Cl)][Bta]T-NH2 (staple 1-4, 4-11) [I-1091] | 11.4
Ac-[αAllylPro]D[tBuAla][B5(3)]DDAAFT[S8][Phe(2-Cl)][Bta][dT]-NH2 (staple 1-4, 4-11) [I-1092] | 7.7
Ac-[αAllylPro]D[tBuAla][B5(4)]DDAAFL[PyrS2″]F[Bta]Q-NH2 (staple 1-4, 4-11) [I-1072] | 10.5
Ac-[αAllylPro]D[tBuAla][B5(4)]DDAAFN[PyrS2″][Phe(2-Cl)][Bta]Q-NHEt (staple 1-4, 4-11) [I-1079] | 19.7
Ac-[αAllylPro]D[tBuAla][B5(3)]DDAAFT[S8][Phe(2-Cl)][Bta]Q-NH2 (staple 1-4, 4-11; also: earlier eluting staple isomer) [I-1086] | 10.1
Ac-[αAllylPro]D[tBuAla][B5(3)]DDAAFT[S8][Phe(2-Cl)][Bta]T-NH2 (staple 1-4, 4-11) [I-1090] | 6.1

Molecular target: T3, Bcat-Halo (beta-catenin HaloTag fusion …)
Test: cell-based or functional assay

Binder | NanoBRET Abs IC50 [µM]
Ac-[αAllylPro]D[tBuAla][B5(4)]DDAAF[Phe(2-CF3)][PyrS2][Phe(2-Cl)][Bta]Q-NH2 (staple 1-4, 4-11) [I-1367] | 7.8
Ac-[αAllylPro]D[tBuAla][B5(4)]DDAAF[Phe(4-CF3)][PyrS2][3Thi][Bta]Q-NH2 (staple 1-4, 4-11) [I-1365] | 9.7
Ac-[αAllylPro]D[tBuAla][B5(4)]DDAAF[Phe(3-CF3)][PyrS2][Phe(2-Cl)][Bta]Q-NH2 (staple 1-4, 4-11) [I-1368] | 14.2
[αAllylPro]D[tBuAla][B5(4)]DDAAFL[PyrS2″][Ala(cPent)][Bta]Q-NH2 (staple 1-4, 4-11) [I-1353] | 8.8
Ac-[αAllylPro]D[tBuAla][B5(4)]DDAAFF[PyrS2][Phe(2-Cl)][Bta]Q-NH2 (staple 1-4, 4-11) [I-1366] | 7.5
Ac-[αAllylPro]D[tBuAla][B5(4)]DDAAF[Phe(2-CF3)][PyrS2][3Thi][Bta]Q-NH2 (staple 1-4, 4-11) [I-1363] | 5.5
B1 | > 20
[αAllylPro]D[tBuAla][B5(4)]DDAAFN[PyrS2″][Ala(cPent)][Bta]Q-NH2 (staple 1-4, 4-11) [I-1352] | 19.5
Ac-[αAllylPro]D[tBuAla][B5(4)]DDAAF[Phe(3-CF3)][PyrS2][3Thi][Bta]Q-NH2 (staple 1-4, 4-11) [I-1364] | 10.5
[αAllylPro]D[tBuAla][B5(4)]DDAAFS[PyrS2″]F[Bta]S-NH2 (staple 1-4, 4-11) [I-1357] | 33.6
[αAllylPro]D[tBuAla][B5(4)]DDAAFL[PyrS2]F[Bta]Q-NH2 (staple 1-4, 4-11) [I-1361] | > 20
[αAllylPro]D[tBuAla][B5(4)]DDAAFL[PyrS2]F[Bta]Q-NH2 (staple 1-4, 4-11) [I-1362] | 19.6
